Tested on: SNF2h (human)
Assay: Cy3 fluorescence intensity titration

0-601-40 nucleosome, Cy3
binding signal (fold lower K1/2 than apo): 3

0-601-78 nucleosome, Cy3
K half: 353 nM

From article PMC2869534
